Patent publication US20230399409A1

What was measured:
human IL-36R (human) = human IL-36R (human) (UniProt Q9HB29); assay: flow cytometry on CHO-K1 cells expressing human IL-36R; fit value in the second table under the plot for a flat curve (row ECF corresponds to EC90 of Table 8; no unit in the table, axis in µg/mL)
monkey IL-36R (monkey) = assay: flow cytometry on CHO-K1 cells expressing monkey IL-36R; fit value in the second table under the plot for a flat curve (row ECF corresponds to EC90 of Table 8; no unit in the table, axis in µg/mL)

Chain of human IL-36R (human) (Q9HB29 20-575): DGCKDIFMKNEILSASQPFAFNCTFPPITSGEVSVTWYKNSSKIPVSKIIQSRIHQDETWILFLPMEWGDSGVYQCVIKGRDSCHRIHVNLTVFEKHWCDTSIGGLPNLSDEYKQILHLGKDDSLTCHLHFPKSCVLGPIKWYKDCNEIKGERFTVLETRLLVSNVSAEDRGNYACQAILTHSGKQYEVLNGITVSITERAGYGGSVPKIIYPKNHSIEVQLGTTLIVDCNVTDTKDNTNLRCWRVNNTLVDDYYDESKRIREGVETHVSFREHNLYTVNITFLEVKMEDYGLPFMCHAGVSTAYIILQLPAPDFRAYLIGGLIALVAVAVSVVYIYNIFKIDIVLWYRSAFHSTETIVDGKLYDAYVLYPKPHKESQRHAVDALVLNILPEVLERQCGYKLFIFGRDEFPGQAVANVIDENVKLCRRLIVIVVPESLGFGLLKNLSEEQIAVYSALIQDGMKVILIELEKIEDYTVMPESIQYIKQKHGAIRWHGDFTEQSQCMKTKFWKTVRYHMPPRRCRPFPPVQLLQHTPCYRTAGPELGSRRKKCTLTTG

TNP IgG1 (Fc silence) negative control antibody 900543
ECF (human IL-36R (human)): 0.000494 µg/mL | ECF (monkey IL-36R (monkey)): 0.000457 µg/mL
